Reference: US20240245796A1 (PROFOUNDBIO US, published 2024)

Key:
[1] = molecular target: T1, human FOLR1 extracellular domain linked to His tag (human, UniProt P15328 25-233, limits assumed); assay: BLI, global 1:1 fit (250 nM row)
T1 construct: extracellular domain; It may be the same product as m13; also called Hu-FRα; Hu-Ag; not shown: His tag

[2] = molecular target: T2, cynomolgus monkey FOLR1 extracellular domain linked to His tag (cynomolgus monkey, UniProt A0A2K5U044 25-233); assay: BLI, global 1:1 fit (250 nM row)
T2 construct: extracellular domain; Antigen in solution in BLI; It may be the same product as m14; also called Cyno-Ag; not shown: His tag

[3] = molecular target: T1, human FOLR1 extracellular domain linked …; assay: BLI, global 1:1 fit (15.6 nM row)
[4] = molecular target: T3, human FOLR2 extracellular domain linked to His tag (human, UniProt P14207 17-230, limits assumed); assay: BLI, global 1:1 fit (15.6 nM row)
T3 construct: extracellular domain; Antigen in solution in BLI; also called Hu-FRb; not shown: His tag

[5] = molecular target: T1, human FOLR1 extracellular domain linked …; assay: BLI, global 1:1 fit (62.5 nM row)
[6] = molecular target: T3, human FOLR2 extracellular domain linked …; assay: BLI, global 1:1 fit (62.5 nM row)
[7] = molecular target: T1, human FOLR1 extracellular domain linked …; assay: BLI, global 1:1 fit (15.6 nM row); remark: listed apart in the source
[8] = molecular target: T2, cynomolgus monkey FOLR1 extracellular …; assay: BLI, global 1:1 fit (15.6 nM row)
[9] = molecular target: T1, human FOLR1 extracellular domain linked …; assay: BLI, global 1:1 fit (62.5 nM row); remark: listed apart in the source
[10] = molecular target: T2, cynomolgus monkey FOLR1 extracellular …; assay: BLI, global 1:1 fit (62.5 nM row)
[11] = molecular target: T1, human FOLR1 extracellular domain linked …; assay: BLI, global 1:1 fit (7.82 nM row)
[12] = molecular target: T2, cynomolgus monkey FOLR1 extracellular …; assay: BLI, global 1:1 fit (7.82 nM row)
[13] = molecular target: T1, human FOLR1 extracellular domain linked …; assay: BLI, Ag 250 nM over Ab on anti-hIgG Fc tip
[14] = molecular target: T3, human FOLR2 extracellular domain linked …; assay: BLI, Ag 250 nM over Ab on anti-hIgG Fc tip
[15] = molecular target: T1, human FOLR1 extracellular domain linked …; assay: BLI, Ag 31.3 nM over Ab on anti-hIgG Fc tip
[16] = molecular target: T2, cynomolgus monkey FOLR1 extracellular …; assay: BLI, Ag 31.3 nM over Ab on anti-hIgG Fc tip
[17] = molecular target: T3, human FOLR2 extracellular domain linked …; assay: BLI, Ag 15.6 nM; * = below range of quantification
[18] = molecular target: T4, human FOLR3 extracellular domain linked to His tag (human, UniProt P41439 23-245, limits assumed); assay: BLI, Ag 15.6 nM; * = below range of quantification
T4 construct: extracellular domain; Antigen in solution in BLI; also called Hu-FRg; not shown: His tag

[19] = molecular target: T5, rat FOLR1 extracellular domain linked to His tag (rat); assay: BLI, Ag 15.6 nM; * = below range of quantification
T5 construct: extracellular domain; Antigen in solution in BLI; also called Rat-Ag

[20] = molecular target: T5, rat FOLR1 extracellular domain linked …; assay: BLI, global 1:1 fit (250 nM row); all responses below quantification
[21] = molecular target: T4, human FOLR3 extracellular domain linked …; assay: BLI, global 1:1 fit (7.82 nM row); all responses below quantification
[22] = molecular target: T5, rat FOLR1 extracellular domain linked …; assay: as above
[23] = molecular target: T6, mouse FOLR1 extracellular domain linked to His tag (mouse, UniProt P35846 25-232, limits assumed); assay: BLI, global 1:1 fit (15.6 nM row); only the 500 nM response quantifiable
T6 construct: extracellular domain; Antigen in solution in BLI; also called Mouse-Ag; not shown: His tag
T6 sequence (P35846 25-232 limits assumed): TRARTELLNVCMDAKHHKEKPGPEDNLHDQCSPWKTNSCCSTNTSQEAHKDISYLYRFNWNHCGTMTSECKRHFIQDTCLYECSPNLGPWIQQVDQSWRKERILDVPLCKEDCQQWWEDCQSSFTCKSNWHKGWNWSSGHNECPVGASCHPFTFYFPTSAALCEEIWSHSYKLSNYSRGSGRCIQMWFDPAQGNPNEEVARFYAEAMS

T3 sequence (P14207 17-230 limits assumed): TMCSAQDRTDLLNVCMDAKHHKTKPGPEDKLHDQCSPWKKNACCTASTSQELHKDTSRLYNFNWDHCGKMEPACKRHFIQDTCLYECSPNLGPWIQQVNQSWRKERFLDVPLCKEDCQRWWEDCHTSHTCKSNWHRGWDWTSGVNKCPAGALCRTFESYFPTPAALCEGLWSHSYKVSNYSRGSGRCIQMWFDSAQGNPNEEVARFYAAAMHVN
T4 sequence (P41439 23-245 limits assumed): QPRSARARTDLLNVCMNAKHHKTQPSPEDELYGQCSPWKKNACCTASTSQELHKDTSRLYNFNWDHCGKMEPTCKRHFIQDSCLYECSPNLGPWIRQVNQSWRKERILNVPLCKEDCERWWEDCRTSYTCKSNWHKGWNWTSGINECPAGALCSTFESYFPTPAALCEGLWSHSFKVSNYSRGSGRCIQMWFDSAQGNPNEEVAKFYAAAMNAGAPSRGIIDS
T2 sequence (A0A2K5U044 entry or part of it): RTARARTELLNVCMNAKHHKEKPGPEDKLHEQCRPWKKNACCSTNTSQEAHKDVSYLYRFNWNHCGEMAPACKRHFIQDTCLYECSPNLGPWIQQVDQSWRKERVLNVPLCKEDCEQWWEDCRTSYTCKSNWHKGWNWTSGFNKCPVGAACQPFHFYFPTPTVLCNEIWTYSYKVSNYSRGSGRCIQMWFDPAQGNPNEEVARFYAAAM
T1 sequence (P15328 25-233 limits assumed): as the sequence (A0A2K5U044 entry or part of it) above, with T2I, R4W, K37R, P146A, Y171H counted along it

B1: F131 (antibody, V domains shown)
VH: EVQLLESGGGVVQPGRSLRLSCAASGFTFSSYGMHWVRQAPGKGLEWVAVISYDGSNKYYADSVKGRFTISRANSKNTLYLQMNSLRAEDTAVYYCARPRAYYGAYGSSFDYWGQGTQVTVSS
VL: EIVMTQSPSSVSASVGDRVAITCRASQGISSWLAWYQQKPGKAPKLLIYAASSLQSGVPSRFSGSGSGTDFTLTISSLQPEDFATYYCQQSYSTPLTFGGGTKVDIK
notes: also called clone F131; F131 mAb
B1 was tested, and the Kd [1] was 1.53 nM, the koff [1] was 0.000338 s⁻¹ and the kon [1] was 221000 M⁻¹ s⁻¹. For the same binder, the Kd [2] was 8.15 nM, the koff [2] was 0.00157 s⁻¹ and the kon [2] was 193000 M⁻¹ s⁻¹. For the same binder, the Kd [3] was 5.3 nM, the koff [3] was 0.0012 s⁻¹ and the kon [3] was 226000 M⁻¹ s⁻¹. The Kd [4] was 142 nM, the koff [4] was 0.0784 s⁻¹ and the kon [4] was 552000 M⁻¹ s⁻¹. For the same binder, the Kd [5] was 5.3 nM, the koff [5] was 0.0012 s⁻¹ and the kon [5] was 226000 M⁻¹ s⁻¹. For the same binder, the Kd [6] was 142 nM, the koff [6] was 0.0784 s⁻¹ and the kon [6] was 552000 M⁻¹ s⁻¹. The Kd [7] was 1.53 nM, the koff [7] was 0.000338 s⁻¹ and the kon [7] was 221000 M⁻¹ s⁻¹. For the same binder, the Kd [8] was 8.15 nM, the koff [8] was 0.00157 s⁻¹ and the kon [8] was 193000 M⁻¹ s⁻¹. The Kd [9] was 1.53 nM, the koff [9] was 0.000338 s⁻¹ and the kon [9] was 221000 M⁻¹ s⁻¹. It also gave a Kd [10] of 8.15 nM, a koff [10] of 0.00157 s⁻¹ and a kon [10] of 193000 M⁻¹ s⁻¹. The Kd [11] was 1.53 nM, the koff [11] was 0.000338 s⁻¹ and the kon [11] was 221000 M⁻¹ s⁻¹. For the same binder, the Kd [12] was 8.15 nM, the koff [12] was 0.00157 s⁻¹ and the kon [12] was 193000 M⁻¹ s⁻¹. It also gave a Response [13] of 0.178, a Response [14] of 0.0207 and a Response [15] of 0.0869. For the same binder, the Response [16] was 0.084, the Response [17] was 0.002 and the Response [18] was -0.00261. For the same binder, the Response [19] was -0.00395, the koff [20] was 1.03 s⁻¹ and the kon [20] was 5490 M⁻¹ s⁻¹. The koff [21] was 0.217 s⁻¹, the kon [21] was 1660 M⁻¹ s⁻¹ and the koff [22] was 1.03 s⁻¹. The kon [22] was 5490 M⁻¹ s⁻¹, the Kd [23] was 2960 nM and the koff [23] was 0.301 s⁻¹. For the same binder, the kon [23] was 102000 M⁻¹ s⁻¹.

B2: F131-LD038 (antibody, V domains shown)
VH: B1 VH
VL: B1 VL
modifications: drug-linker LD038 (PB038, maleimide-PEG unit-Val-Cit-PAB-exatecan) on cysteines freed by TCEP reduction; positions not given
notes: Antibody-drug conjugate of F131 (IgG1) with LD038; also called anti-huFOLR-1 conjugate F131-LD038; F131-038
B2 gave a Kd [1] of 4.8 nM, a koff [1] of 0.00107 s⁻¹ and a kon [1] of 224000 M⁻¹ s⁻¹. For the same binder, the Kd [2] was 8.82 nM, the koff [2] was 0.0016 s⁻¹ and the kon [2] was 181000 M⁻¹ s⁻¹. For the same binder, the Kd [3] was 4.79 nM, the koff [3] was 0.00121 s⁻¹ and the kon [3] was 252000 M⁻¹ s⁻¹. For the same binder, the Kd [4] was 84.4 nM, the koff [4] was 0.0813 s⁻¹ and the kon [4] was 963000 M⁻¹ s⁻¹. For the same binder, the Kd [5] was 4.79 nM, the koff [5] was 0.00121 s⁻¹ and the kon [5] was 252000 M⁻¹ s⁻¹. The Kd [6] was 84.4 nM, the koff [6] was 0.0813 s⁻¹ and the kon [6] was 963000 M⁻¹ s⁻¹. It also gave a Kd [7] of 4.8 nM, a koff [7] of 0.00107 s⁻¹ and a kon [7] of 224000 M⁻¹ s⁻¹. It also gave a Kd [8] of 8.82 nM, a koff [8] of 0.0016 s⁻¹ and a kon [8] of 181000 M⁻¹ s⁻¹. It also gave a Kd [9] of 4.8 nM, a koff [9] of 0.00107 s⁻¹ and a kon [9] of 224000 M⁻¹ s⁻¹. It also gave a Kd [10] of 8.82 nM, a koff [10] of 0.0016 s⁻¹ and a kon [10] of 181000 M⁻¹ s⁻¹. It also gave a Kd [11] of 4.8 nM, a koff [11] of 0.00107 s⁻¹ and a kon [11] of 224000 M⁻¹ s⁻¹. The Kd [12] was 8.82 nM, the koff [12] was 0.0016 s⁻¹ and the kon [12] was 181000 M⁻¹ s⁻¹. For the same binder, the Response [13] was 0.201, the Response [14] was 0.0243 and the Response [15] was 0.0866. For the same binder, the Response [16] was 0.0702, the Response [17] was 0.0041 and the Response [18] was 0.0084. For the same binder, the Response [19] was -0.00212, the koff [20] was 0.224 s⁻¹ and the koff [21] was 0.233 s⁻¹. For the same binder, the koff [22] was 0.224 s⁻¹, the kon [22] was 2.64e+06 M⁻¹ s⁻¹ and the Kd [23] was 2870 nM. The koff [23] was 0.266 s⁻¹ and the kon [23] was 92600 M⁻¹ s⁻¹.
